Patent US20230416410A1
Residue numbers refer to the chain shown, from its start.

B1: bIgG3a wildtype mAb (antibody, part only; not given: variable domains, not shown: another chain or arm of the molecule)
constant: ASTTAPKVYPLASSCGDTSSSTVTLGCLVSSYMPEPVTVTWNSGALKSGVHTFPAVRQSSGLYSLSSMVTVPASSSETQTFTCNVAHPASSTKVDKAVTARRPVPTTPKTTIPPGKPTTPKSEVEKTPCQCSKCPEPLGGLSVFIFPPKPKDTLTISGTPEVTCVVVDVGQDDPEVQFSWFVDDVEVHTARTKPREEQFNSTYRVVSALRIQHQDWLQGKEFKCKVNNKGLPAPIVRTISRTKGQAREPQVYVLAPPREELSKSTLSLTCLITGFYPEEIDVEWQRNGQPESEDKYHTTAPQLDADGSYFLYSKLRVNKSSWQEGDHYTCAVMHEALRNHYKEKSISRSPGK
B2: bIgG3a_R433H mutant mAb (antibody, part only; not given: variable domains, not shown: another chain or arm of the molecule)
constant: B1 constant with R338H
B3: bIgG1a mAb (antibody, part only; not given: variable domains, not shown: another chain or arm of the molecule)
constant: ASTTAPKVYPLSSCCGDKSSSTVTLGCLVSSYMPEPVTVTWNSGALKSGVHTFPAVLQSSGLYSLSSMVTVPGSTSGTQTFTCNVAHPASSTKVDKAVDPRCKTTCDCCPPPELPGGPSVFIFPPKPKDTLTISGTPEVTCVVVDVGHDDPEVKFSWFVDDVEVNTATTKPREEQFNSTYRVVSALRIQHQDWTGGKEFKCKVHNEGLPAPIVRTISRTKGPAREPQVYVLAPPQEELSKSTVSLTCMVTSFYPDYIAVEWQRNGQPESEDKYGTTPPQLDADGSYFLYSRLRVDRNSWQEGDTYTCVVMHEALHNHYTQKSTSKSAGK
B4: bIgG2a_L432A mAb (antibody, part only; not given: variable domains, not shown: another chain or arm of the molecule)
constant: ASTTAPKVYPLTSCCGDKSSSRVTLGCLVSSYMPEPVTVTWNSGALKSGVHTFPAVLQSSGLYSLSSMVTVPGSSSGQTFTCNVAHPASSTKVDKAVGVSSDCSKPNNQHCVREPSVFIFPPKPKDTLMITGTPEVTCVVVNVGHDNPEVQFSWFVDDVEVHTARTKPREEQFNSTYRVVSALPIQHQDWTGGKEFKCKVNIKGLSASIVRIISRSKGPAREPQVYVLDPPKEELSKSTVSVTCMVIGFYPEDVDVEWQRDRQTESEDKYRTTPPQLDADRSYFLYSKLRVDRNSWQRGDTYTCVVMHEAAHNHYMQKSTSKSAGK
B5: bIgG2a_L432A_N434A mAb (antibody, part only; not given: variable domains, not shown: another chain or arm of the molecule)
constant: B4 constant with N313A
B6: bIgG2a_M437A mAb (antibody, part only; not given: variable domains, not shown: another chain or arm of the molecule)
constant: B4 constant with A311L, M316A
B7: bIgG2a_N434A_M437A mAb (antibody, part only; not given: variable domains, not shown: another chain or arm of the molecule)
constant: B4 constant with A311L, N313A, M316A
B8: bIgG2a_L432A_N434A_M437A mAb (antibody, part only; not given: variable domains, not shown: another chain or arm of the molecule)
constant: B4 constant with N313A, M316A
B9: bIgG2a_L432A_M437A mAb (antibody, part only; not given: variable domains, not shown: another chain or arm of the molecule)
constant: B4 constant with M316A
B10: bIgG2a_N434A mAb (antibody, part only; not given: variable domains, not shown: another chain or arm of the molecule)
constant: B4 constant with A311L, N313A

The binders below were run against recombinant bovine FcRn (bovine) (UniProt F6R592) (assay: SPR Biacore, bFcRn on SA sensor, pH 6, 25 C).
Sequence of recombinant bovine FcRn (bovine) (chain, as listed by the source, chain 1 of 2): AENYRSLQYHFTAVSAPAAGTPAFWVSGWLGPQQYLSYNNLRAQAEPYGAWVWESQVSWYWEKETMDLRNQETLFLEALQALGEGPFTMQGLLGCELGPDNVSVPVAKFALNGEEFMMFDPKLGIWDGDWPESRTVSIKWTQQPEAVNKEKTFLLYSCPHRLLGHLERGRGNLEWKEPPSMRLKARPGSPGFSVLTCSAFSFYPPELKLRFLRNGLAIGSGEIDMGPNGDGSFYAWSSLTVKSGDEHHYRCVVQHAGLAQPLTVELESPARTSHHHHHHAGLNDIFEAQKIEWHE
Sequence of recombinant bovine FcRn (bovine) (P01888 21-118, chain 2 of 2): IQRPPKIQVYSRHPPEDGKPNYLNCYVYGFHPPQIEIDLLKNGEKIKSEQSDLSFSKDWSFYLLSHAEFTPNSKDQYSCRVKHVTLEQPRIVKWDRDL

Compared with B1, B2 is 3.3-fold lower in Kd: 30.2 nM for the first, 9.14 nM for the second.

Going from B3 to B4, the Kd falls from 31.4 nM to 0.579 nM (54-fold). The second binds more tightly here.

Compared with B5, B6 is 2.9-fold lower in Kd: 1.7 nM for the first, 0.59 nM for the second.

Going from B7 to B8, the Kd rises from 2.31 nM to 6.96 nM (3-fold). The first binds more tightly here.

Compared with B9, B10 is 2.9-fold lower in Kd: 3.03 nM for the first, 1.04 nM for the second. The second binds more tightly here.

What follows are binders tested against recombinant bovine Fcg2R (bovine) (assay: SPR Biacore, bFcg2R amine-coupled on CM5, pH 7.4, 15 C).
Sequence of recombinant bovine Fcg2R (bovine) (main, as listed by the source): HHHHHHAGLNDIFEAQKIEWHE

Binder B5 has a Kd of 59.3 nM.

What follows are binders tested against recombinant bovine FcRn (bovine) (UniProt F6R592) (assay: SPR Biacore, bFcRn, pH 6; against bIgG3a wildtype mAb).

Work on B2 yielded a fold higher affinity than bIgG3a wildtype of 5 fold.

The binders below were run against recombinant bovine Fcg2R (bovine) (assay: SPR Biacore, bFcg2R amine-coupled on CM5; against bIgG2a wildtype mAb).

For B5, the Fcg2R KD reduction from WT was 4 fold.
